Measurements published in the supplement of paper PMC10065799, “High-throughput profiling of sequence recognition by tyrosine kinases and SH2 domains using bacterial peptide display” (eLife, 2023).

Legend:
AncSZ = experiment: phosphorylation enrichment, bacterial display (enrichment ratio); higher = better substrate or ligand; peptides without Tyr show the background
EPHB1 = EPHB1 (UniProt P54762); experiment: as above
EPHB2 = EPHB2 (UniProt P29323); experiment: as above
FGFR1 = FGFR1 (UniProt P11362); experiment: as above
FGFR3 = FGFR3 (UniProt P22607); experiment: as above
Chain of FGFR3 (P22607 whole entry, looked up): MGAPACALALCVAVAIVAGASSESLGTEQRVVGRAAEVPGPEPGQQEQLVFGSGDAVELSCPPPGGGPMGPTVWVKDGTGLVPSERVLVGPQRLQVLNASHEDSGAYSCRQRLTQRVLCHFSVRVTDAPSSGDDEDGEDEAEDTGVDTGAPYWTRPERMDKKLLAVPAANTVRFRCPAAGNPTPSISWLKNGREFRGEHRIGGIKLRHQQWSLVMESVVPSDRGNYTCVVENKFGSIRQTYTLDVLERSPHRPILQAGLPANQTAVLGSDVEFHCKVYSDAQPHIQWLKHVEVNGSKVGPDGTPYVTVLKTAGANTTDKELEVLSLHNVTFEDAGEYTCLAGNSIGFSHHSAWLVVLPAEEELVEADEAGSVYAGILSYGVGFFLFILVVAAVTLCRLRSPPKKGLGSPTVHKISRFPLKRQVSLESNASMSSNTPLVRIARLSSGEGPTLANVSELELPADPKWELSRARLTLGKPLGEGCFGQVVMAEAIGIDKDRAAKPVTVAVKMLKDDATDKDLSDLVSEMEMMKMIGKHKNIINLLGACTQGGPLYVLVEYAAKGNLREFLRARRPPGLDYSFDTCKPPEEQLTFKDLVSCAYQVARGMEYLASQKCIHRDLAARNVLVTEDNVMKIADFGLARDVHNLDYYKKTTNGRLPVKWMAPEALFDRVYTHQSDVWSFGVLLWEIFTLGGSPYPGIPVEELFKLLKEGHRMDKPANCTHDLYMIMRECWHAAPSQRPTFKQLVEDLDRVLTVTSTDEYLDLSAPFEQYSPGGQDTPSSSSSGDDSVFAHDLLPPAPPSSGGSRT

Fer (mouse) = experiment: as above
Fes = Fes (UniProt P07332); experiment: as above
Fyn = Fyn (UniProt P06241); experiment: as above
Hck = Hck (UniProt P08631); experiment: as above
Chain of Hck (P08631 whole entry, looked up): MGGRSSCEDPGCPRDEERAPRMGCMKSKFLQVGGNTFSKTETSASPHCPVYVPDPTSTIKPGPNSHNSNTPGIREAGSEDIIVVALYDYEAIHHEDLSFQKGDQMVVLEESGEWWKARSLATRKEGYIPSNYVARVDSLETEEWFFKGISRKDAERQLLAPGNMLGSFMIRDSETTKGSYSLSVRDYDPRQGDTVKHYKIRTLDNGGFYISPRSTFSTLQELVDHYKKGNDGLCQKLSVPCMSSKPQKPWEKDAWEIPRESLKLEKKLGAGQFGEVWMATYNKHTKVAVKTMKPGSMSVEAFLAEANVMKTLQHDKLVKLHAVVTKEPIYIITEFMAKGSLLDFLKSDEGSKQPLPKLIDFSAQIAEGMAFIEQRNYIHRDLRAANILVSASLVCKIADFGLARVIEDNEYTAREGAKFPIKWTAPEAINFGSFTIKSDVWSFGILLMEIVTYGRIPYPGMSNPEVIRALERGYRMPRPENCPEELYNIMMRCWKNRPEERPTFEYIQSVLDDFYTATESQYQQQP

Jak2 = Jak2 (UniProt O60674); experiment: as above
Chain of Jak2 (O60674 whole entry, looked up): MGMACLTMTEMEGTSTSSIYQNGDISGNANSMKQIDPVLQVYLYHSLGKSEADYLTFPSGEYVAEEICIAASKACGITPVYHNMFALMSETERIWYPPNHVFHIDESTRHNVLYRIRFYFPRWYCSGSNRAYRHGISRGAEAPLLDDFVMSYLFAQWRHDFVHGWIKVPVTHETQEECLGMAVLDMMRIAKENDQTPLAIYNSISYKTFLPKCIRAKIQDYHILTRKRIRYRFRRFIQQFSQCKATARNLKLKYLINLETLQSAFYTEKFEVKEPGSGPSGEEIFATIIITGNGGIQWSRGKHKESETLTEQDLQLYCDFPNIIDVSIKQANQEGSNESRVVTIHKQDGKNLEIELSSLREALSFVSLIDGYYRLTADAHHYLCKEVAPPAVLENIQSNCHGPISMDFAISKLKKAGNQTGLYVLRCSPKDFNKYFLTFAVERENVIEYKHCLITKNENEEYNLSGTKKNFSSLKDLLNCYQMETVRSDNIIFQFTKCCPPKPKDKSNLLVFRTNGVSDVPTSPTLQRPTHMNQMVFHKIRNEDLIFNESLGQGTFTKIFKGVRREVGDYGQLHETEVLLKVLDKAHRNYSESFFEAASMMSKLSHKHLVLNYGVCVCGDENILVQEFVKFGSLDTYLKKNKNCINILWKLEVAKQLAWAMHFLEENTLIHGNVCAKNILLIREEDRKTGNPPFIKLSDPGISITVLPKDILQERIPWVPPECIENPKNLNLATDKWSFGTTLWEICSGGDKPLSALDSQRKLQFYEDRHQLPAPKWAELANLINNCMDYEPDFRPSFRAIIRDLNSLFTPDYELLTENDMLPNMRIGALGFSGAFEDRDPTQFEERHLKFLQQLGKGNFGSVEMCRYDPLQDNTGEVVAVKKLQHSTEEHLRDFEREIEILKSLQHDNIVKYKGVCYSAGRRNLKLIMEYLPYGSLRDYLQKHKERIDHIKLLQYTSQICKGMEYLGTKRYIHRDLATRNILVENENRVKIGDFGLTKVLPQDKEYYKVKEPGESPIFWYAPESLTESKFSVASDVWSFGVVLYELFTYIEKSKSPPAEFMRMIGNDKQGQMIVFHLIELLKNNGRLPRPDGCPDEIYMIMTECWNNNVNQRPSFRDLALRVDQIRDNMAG

MERTK = MERTK (UniProt Q12866); experiment: as above
Chain of MERTK (Q12866 whole entry, looked up): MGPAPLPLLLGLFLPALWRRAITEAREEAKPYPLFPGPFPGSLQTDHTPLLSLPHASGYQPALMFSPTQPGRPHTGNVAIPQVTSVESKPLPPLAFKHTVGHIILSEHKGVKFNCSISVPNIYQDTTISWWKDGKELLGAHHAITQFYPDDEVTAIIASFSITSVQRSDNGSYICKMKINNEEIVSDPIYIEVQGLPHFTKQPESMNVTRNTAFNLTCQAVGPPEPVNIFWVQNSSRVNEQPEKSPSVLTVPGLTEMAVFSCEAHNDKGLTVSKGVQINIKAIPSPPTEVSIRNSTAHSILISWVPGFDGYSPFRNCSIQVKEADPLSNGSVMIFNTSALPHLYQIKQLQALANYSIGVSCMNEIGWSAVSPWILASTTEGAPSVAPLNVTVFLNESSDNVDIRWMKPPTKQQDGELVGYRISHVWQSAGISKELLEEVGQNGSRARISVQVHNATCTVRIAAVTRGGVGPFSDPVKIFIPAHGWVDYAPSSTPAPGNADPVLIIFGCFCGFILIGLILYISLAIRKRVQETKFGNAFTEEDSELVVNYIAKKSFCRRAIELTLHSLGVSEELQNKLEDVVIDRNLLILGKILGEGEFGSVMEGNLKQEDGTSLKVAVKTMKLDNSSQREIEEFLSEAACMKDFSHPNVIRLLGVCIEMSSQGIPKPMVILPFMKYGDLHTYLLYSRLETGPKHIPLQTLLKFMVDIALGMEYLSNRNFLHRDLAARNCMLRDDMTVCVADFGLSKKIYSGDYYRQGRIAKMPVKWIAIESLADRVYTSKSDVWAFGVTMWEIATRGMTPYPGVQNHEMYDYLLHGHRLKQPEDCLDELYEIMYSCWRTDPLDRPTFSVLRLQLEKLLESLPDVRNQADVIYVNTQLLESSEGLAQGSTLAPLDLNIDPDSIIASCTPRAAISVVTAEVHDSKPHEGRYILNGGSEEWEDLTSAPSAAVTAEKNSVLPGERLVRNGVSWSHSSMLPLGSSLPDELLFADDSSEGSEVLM

c-Abl (mouse) = experiment: as above
c-Src = experiment: as above
Grb2 SH2 = Grb2 SH2 (UniProt P62993); experiment: SH2 binding enrichment of the phosphorylated peptide, bacterial display (enrichment ratio); higher = better substrate or ligand; peptides without Tyr show the background
Chain of Grb2 SH2 (P62993 whole entry, looked up): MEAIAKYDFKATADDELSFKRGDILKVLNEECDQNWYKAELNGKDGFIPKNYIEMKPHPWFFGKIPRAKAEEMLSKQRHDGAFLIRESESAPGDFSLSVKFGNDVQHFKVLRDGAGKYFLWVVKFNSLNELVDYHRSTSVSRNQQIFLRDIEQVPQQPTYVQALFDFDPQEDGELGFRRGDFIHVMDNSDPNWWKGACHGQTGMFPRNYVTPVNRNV

SHP2-C SH2 = experiment: as above
c-Src SH2 = experiment: as above
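Wherever SH2 binding enrichment of the phosphorylated peptide, bacterial display is given: peptide library displayed on the E. coli surface as eCPX fusions, selected cells deep-sequenced, score is each peptide's frequency after selection divided by its frequency in the input.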
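Wherever phosphorylation enrichment, bacterial display is given: 11-residue human phosphosite peptides and single-mutation variants displayed on the E. coli surface, counted by deep sequencing, each peptide's frequency after selection divided by its frequency in the unselected input library; frequency after pTyr selection over input frequency; kinase dosed for 20-30% of maximal phosphorylation in three min.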

Chain of EPHB1 (P54762 whole entry, looked up): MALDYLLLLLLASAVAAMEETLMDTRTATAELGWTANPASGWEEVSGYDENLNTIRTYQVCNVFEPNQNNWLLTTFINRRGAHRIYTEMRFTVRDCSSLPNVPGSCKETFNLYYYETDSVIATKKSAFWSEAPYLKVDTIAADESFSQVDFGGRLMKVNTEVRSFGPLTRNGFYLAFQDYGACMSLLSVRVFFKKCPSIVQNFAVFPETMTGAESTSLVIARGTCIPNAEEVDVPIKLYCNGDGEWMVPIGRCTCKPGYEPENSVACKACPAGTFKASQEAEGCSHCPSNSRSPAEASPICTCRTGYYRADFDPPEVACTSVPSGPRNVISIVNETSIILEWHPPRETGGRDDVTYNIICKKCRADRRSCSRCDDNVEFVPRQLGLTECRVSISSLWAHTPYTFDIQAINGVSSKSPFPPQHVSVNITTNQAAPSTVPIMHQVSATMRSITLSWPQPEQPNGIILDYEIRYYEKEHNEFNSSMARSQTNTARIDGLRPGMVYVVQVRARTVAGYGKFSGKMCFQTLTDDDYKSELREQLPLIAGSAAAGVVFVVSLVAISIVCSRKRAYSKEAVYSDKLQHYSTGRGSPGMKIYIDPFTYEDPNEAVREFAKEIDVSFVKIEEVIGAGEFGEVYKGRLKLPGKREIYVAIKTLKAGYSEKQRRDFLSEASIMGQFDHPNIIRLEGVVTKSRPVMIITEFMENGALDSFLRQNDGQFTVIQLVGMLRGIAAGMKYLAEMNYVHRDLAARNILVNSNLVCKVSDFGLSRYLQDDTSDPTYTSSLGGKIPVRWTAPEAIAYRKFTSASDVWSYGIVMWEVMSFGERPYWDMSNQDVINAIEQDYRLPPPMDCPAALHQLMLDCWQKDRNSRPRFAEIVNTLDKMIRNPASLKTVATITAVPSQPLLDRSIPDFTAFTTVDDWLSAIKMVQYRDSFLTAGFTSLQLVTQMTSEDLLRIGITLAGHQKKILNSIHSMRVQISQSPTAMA

| Sequence | phosphorylation enrichment (AncSZ) | phosphorylation enrichment (EPHB1) | phosphorylation enrichment (EPHB2) | phosphorylation enrichment (FGFR1) | phosphorylation enrichment (FGFR3) | phosphorylation enrichment (Fer (mouse)) | phosphorylation enrichment (Fes) | phosphorylation enrichment (Fyn) | phosphorylation enrichment (Hck) | phosphorylation enrichment (Jak2) | phosphorylation enrichment (MERTK) | phosphorylation enrichment (c-Abl (mouse)) | phosphorylation enrichment (c-Src) | SH2 binding enrichment (Grb2 SH2) | SH2 binding enrichment (SHP2-C SH2) | SH2 binding enrichment (c-Src SH2) |
| --- | --- | --- | --- | --- | --- | --- | --- | --- | --- | --- | --- | --- | --- | --- | --- | --- |
| QDLTDYLMKIL [ACTA2_Y190_R185Q] | 1.01 | 0.523 | 0.772 | 0.807 | 0.698 | 0.558 | 1.55 | 0.657 | 0.916 | 1.34 | 0.809 | 1.13 | 0.546 | 1.33 | 1.23 | 0.861 |
| QEEPEYWDQET [HLA-A_Y83_G80E] | 2.08 | 1.08 | 0.793 | 0.897 | 1.43 | 0.902 | 1.95 | 0.943 | 0.699 | 2 | 0.384 | 0.907 | 0.823 | 0.798 | 0.476 | 0.491 |
| QEGPEYWDGNT [HLA-B_Y83_R86G] | 1.93 | 0.762 | 0.959 | 1.11 | 1.56 | 0.533 | 1.97 | 0.548 | 0.833 | 1.98 | 0.709 | 1.08 | 0.854 | 0.908 | 0.653 | 0.367 |
| QEGPEYWDQET [HLA-A_Y83] | 1.82 | 0.809 | 0.533 | 0.816 | 1.16 | 0.546 | 1.79 | 0.739 | 0.73 | 1.94 | 0.66 | 0.907 | 0.825 | 0.819 | 0.354 | 0.588 |
| QFKGKYLAKHN [CASK_Y712_D710G_YF] | 1.2 | 0.49 | 0.527 | 0.498 | 0.327 | 0.441 | 0.616 | 0.415 | 0.376 | 0.855 | 0.632 | 0.467 | 0.404 | 1.29 | 1.16 | 1.16 |
| QFQEKYKQVEQ [HCN4_Y531_YF] | 1.27 | 0.663 | 0.95 | 0.699 | 0.706 | 0.63 | 1.29 | 0.564 | 0.882 | 2.09 | 0.559 | 0.913 | 0.679 | 0.624 | 0.876 | 0.603 |
| QGIIIYKAAFF [SLC25A4_Y187_R188K_YF] | 1.5 | 1.21 | 0.723 | 0.798 | 0.852 | 0.721 | 1.36 | 0.569 | 0.526 | 1.05 | 0.439 | 1.1 | 0.917 | 1.36 | 0.446 | 0.373 |
| QKNVSYVSTVS [TASOR_Y1043] | 0.815 | 0.285 | 1.75 | 0.405 | 0.506 | 0.403 | 0.514 | 0.532 | 0.47 | 0.401 | 0.509 | 0.38 | 0.335 | 0.679 | 0.891 | 0.26 |
| QLPRGYISIPV [BAG3_Y205] | 0.789 | 0.698 | 0.722 | 0.482 | 0.744 | 0.642 | 0.974 | 0.839 | 0.718 | 0.881 | 0.612 | 0.867 | 0.592 | 0.736 | 0.993 | 0.887 |
| QLQVFYATRDQ [MIPEP_Y579_L582R] | 1.27 | 0.787 | 0.805 | 0.86 | 1 | 0.59 | 1.71 | 0.881 | 1.14 | 1.96 | 0.567 | 1.2 | 0.977 | 0.904 | 1.25 | 0.659 |
| QMVGMYASFFM [AVPR2_Y124_S127F_YF] | 1.88 | 3.06 | 2.27 | 0.676 | 1.5 | 5.31 | 2.03 | 9.8 | 5.82 | 2.03 | 5.38 | 4.72 | 8.13 | 0.642 | 0.782 | 0.602 |
| QNTGDDFDLFG [PTPN11_Y62_Y62D_YF] | 1.7 | 0.599 | 1.02 | 0.936 | 1.1 | 0.7 | 1.75 | 0.54 | 0.748 | 1.6 | 0.634 | 1.11 | 0.689 | 0.768 | 0.442 | 0.402 |
| QNTVDYYDLYG [PTPN11_Y62_G60V] | 2.72 | 4.44 | 3.38 | 18.4 | 15.4 | 1.1 | 1.66 | 6.01 | 6.03 | 2.63 | 1.33 | 1.38 | 5.35 | 0.892 | 0.502 | 0.816 |
| QQLQGYVPSNF [FRK_Y99_I100V_YF] | 0.699 | 0.653 | 0.664 | 0.475 | 0.779 | 0.584 | 1.07 | 0.479 | 0.802 | 1.52 | 0.75 | 1.13 | 0.904 | 1.03 | 0.64 | 0.659 |
| QRAADYFSQQM [GBP6_Y333_YF] | 1 | 0.469 | 0.57 | 0.558 | 0.634 | 0.491 | 0.921 | 0.546 | 0.488 | 0.698 | 0.352 | 0.586 | 0.687 | 0.789 | 0.353 | 0.338 |
| QRALLYEDALY [UNC13D_Y56] | 2.17 | 12.3 | 12.3 | 0.861 | 0.975 | 17.1 | 2.05 | 7.7 | 7.73 | 1.08 | 5.12 | 1.04 | 6.09 | 0.825 | 0.542 | 0.843 |
| QSSALYEDCYL [ASS1_Y83_R86C] | 1.82 | 12.4 | 7.55 | 0.788 | 1.02 | 16.9 | 2.95 | 3 | 1.84 | 1.5 | 3.43 | 1.35 | 3.61 | 0.863 | 0.514 | 0.86 |

| Sequence | phosphorylation enrichment (AncSZ) | phosphorylation enrichment (EPHB1) | phosphorylation enrichment (EPHB2) | phosphorylation enrichment (FGFR1) | phosphorylation enrichment (FGFR3) | phosphorylation enrichment (Fer (mouse)) | phosphorylation enrichment (Fes) | phosphorylation enrichment (Fyn) | phosphorylation enrichment (Hck) | phosphorylation enrichment (Jak2) | phosphorylation enrichment (MERTK) | phosphorylation enrichment (c-Abl (mouse)) | phosphorylation enrichment (c-Src) | SH2 binding enrichment (Grb2 SH2) | SH2 binding enrichment (SHP2-C SH2) | SH2 binding enrichment (c-Src SH2) |
| --- | --- | --- | --- | --- | --- | --- | --- | --- | --- | --- | --- | --- | --- | --- | --- | --- |
| QTEAEYRFIFM [PTPN11_Y511_Q510E_YF] | 1.29 | 0.59 | 0.762 | 1.46 | 1.42 | 0.847 | 1.32 | 0.511 | 0.626 | 1.24 | 0.618 | 0.912 | 0.525 | 0.643 | 0.39 | 0.364 |
| QTEAEYRFIYM [PTPN11_Y511_Q510E] | 1.55 | 1.09 | 0.65 | 4.4 | 3.09 | 1.11 | 1.86 | 0.828 | 0.886 | 1.51 | 0.641 | 1.26 | 0.878 | 0.7 | 0.553 | 0.423 |
| QTEAQYRFIYM [PTPN11_Y511] | 1.77 | 0.835 | 0.782 | 1.65 | 1.54 | 1.09 | 1.29 | 0.634 | 0.542 | 1.56 | 0.667 | 1.5 | 1.23 | 0.563 | 0.744 | 0.244 |
| QTLTDYDIRFY [CSNK2A1_Y131] | 1.27 | 0.825 | 0.72 | 0.62 | 0.84 | 0.586 | 1.27 | 0.552 | 0.526 | 1.18 | 0.484 | 0.913 | 0.603 | 0.795 | 0.775 | 0.548 |
| QYKDKYLAKHN [CASK_Y712] | 0.401 | 0.501 | 0.402 | 0.526 | 0.663 | 0.349 | 0.927 | 0.436 | 0.207 | 0.605 | 0.283 | 0.458 | 0.308 | 0.648 | 0.798 | 1.02 |
| RAEAQYLLVSN [LRIG1_Y1054] | 0.897 | 0.639 | 0.551 | 2.61 | 1.78 | 0.43 | 0.761 | 0.466 | 0.493 | 0.933 | 0.681 | 0.665 | 0.648 | 0.884 | 0.62 | 0.431 |
| RAMRRYLERGE [ERBB3_Y680] | 0.722 | 0.719 | 0.563 | 0.636 | 0.679 | 0.686 | 0.576 | 0.608 | 0.711 | 0.607 | 0.61 | 0.615 | 0.455 | 0.716 | 0.554 | 0.411 |
| RDEHGYISRCF [HSPB1_Y133_Q128R] | 1.49 | 0.789 | 1.15 | 0.722 | 1.17 | 0.734 | 1.65 | 0.825 | 0.755 | 1.53 | 0.565 | 1.23 | 0.675 | 0.717 | 0.455 | 0.45 |
| REGAKYVSHDA [ASS1_Y113_G117D] | 1.4 | 0.508 | 0.423 | 0.648 | 0.739 | 0.767 | 0.988 | 0.655 | 0.553 | 0.886 | 0.833 | 0.75 | 0.565 | 0.678 | 0.452 | 0.389 |
| REIIAYQPYGK [PRKCG_Y529_P524R] | 0.83 | 0.429 | 0.617 | 0.329 | 0.415 | 0.357 | 0.721 | 0.625 | 0.563 | 0.531 | 0.294 | 0.467 | 0.405 | 0.833 | 0.538 | 0.808 |
| RFLRGYRQDAY [HLA-A_Y137] | 1.15 | 0.43 | 0.432 | 0.677 | 0.664 | 0.483 | 0.827 | 0.647 | 0.764 | 0.927 | 1.2 | 0.922 | 1.14 | 1.1 | 0.556 | 0.628 |
| RGGWAYVLHPT [TRMT61A_Y67_V66A] | 1.34 | 0.711 | 0.816 | 0.663 | 0.698 | 0.611 | 1.51 | 0.505 | 0.509 | 1.1 | 0.52 | 0.93 | 0.671 | 0.905 | 0.654 | 0.437 |
| RGKDSYETSKL [SPP1_Y225_Q229K] | 1.26 | 0.983 | 0.678 | 0.613 | 0.788 | 0.699 | 0.986 | 0.695 | 0.669 | 1.07 | 0.62 | 1.49 | 0.571 | 1.03 | 0.581 | 0.388 |
| RGLQVYHRRNA [LRP2_Y2010] | 1.41 | 0.755 | 0.86 | 1.1 | 0.889 | 0.803 | 1.05 | 0.964 | 0.783 | 1.2 | 1.2 | 0.957 | 1.49 | 0.674 | 0.604 | 0.486 |
| RGRSTCYWPRP [GAGE12J_Y9_Y9C] | 1.06 | 0.688 | 0.6 | 0.704 | 0.981 | 0.582 | 0.756 | 0.599 | 0.736 | 0.655 | 0.732 | 0.623 | 0.816 | 0.642 | 0.714 | 0.658 |
| RHFVFYFSFLL [PTEN_Y177_R173H_YF] | 1.26 | 0.547 | 1.44 | 0.496 | 0.553 | 0.18 | 0.867 | 0.538 | 0.391 | 0.607 | 0.357 | 0.703 | 0.653 | 1.88 | 0.962 | 1.4 |
